8 molecules from patent US20060253917A1 (published 2006) can be followed below.

One assay concerns the target T1, OsRACD aa 1-198 (Oryza sativa, UniProt Q6EP31 1-197).
T1 construct: bait, Gal4 DBD fusion; also called PN19695
The assay can be described thus: Y2H; input trait library. The method in brief:
(§1)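 Myriad Genetics Inc. (Salt Lake City, Utah) supplied the automated, high-throughput yeast two-hybrid assay used to detect protein-protein interactions. A bait clone encoding a defined amino-acid fragment of a rice protein was screened against a rice prey library, either the input trait or the output trait library. To identify the interacting proteins, prey clones were retrieved and their encoding sequences were compared against databases by BLAST.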

The target in the next assay is T2, OsS49462 aa 1-100 (Oryza sativa, UniProt Q01J96 179-278).
T2 construct: bait, Gal4 DBD fusion; also called PN20325; O. sativa Cyclin OsS49462, Fragment
T2 sequence: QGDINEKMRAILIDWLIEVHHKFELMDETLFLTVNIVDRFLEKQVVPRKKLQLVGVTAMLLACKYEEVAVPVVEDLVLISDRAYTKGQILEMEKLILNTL
The assay can be described thus: Y2H; input trait library. The method in brief:
as §1

A further assay deals with T3, PN20674 aa 64-263 (Oryza sativa, UniProt Q6AVA8 64-263).
T3 construct: prey, AD fusion; also called Pyruvate orthophosphate dikinase-like
T3 sequence: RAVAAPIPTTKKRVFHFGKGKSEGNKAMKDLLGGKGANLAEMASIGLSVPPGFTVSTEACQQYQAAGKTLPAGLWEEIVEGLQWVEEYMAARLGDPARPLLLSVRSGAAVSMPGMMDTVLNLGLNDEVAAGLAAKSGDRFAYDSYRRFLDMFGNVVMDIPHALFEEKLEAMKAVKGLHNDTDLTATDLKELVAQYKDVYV
Briefly: Y2H; input trait library. The method in brief: as §1

In another assay the target is T4, PN20674 aa 71-298 (Oryza sativa, UniProt Q6AVA8 71-298).
T4 construct: prey, AD fusion; also called Pyruvate orthophosphate dikinase-like
T4 sequence: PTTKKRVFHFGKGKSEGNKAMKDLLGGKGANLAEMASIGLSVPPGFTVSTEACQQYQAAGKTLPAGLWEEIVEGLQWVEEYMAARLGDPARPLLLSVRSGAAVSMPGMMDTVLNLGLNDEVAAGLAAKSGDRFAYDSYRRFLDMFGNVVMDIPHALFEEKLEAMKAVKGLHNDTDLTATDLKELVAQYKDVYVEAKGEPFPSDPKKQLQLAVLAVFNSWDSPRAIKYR
Briefly: Y2H; input trait library. Summed up: as §1

The next assay concerns the target T5, Os008938-3209 aa 53-259 (Oryza sativa, UniProt Q06967 53-259).
T5 construct: prey, AD fusion; also called PN20215; O. sativa Putative 14-3-3 Protein
T5 sequence: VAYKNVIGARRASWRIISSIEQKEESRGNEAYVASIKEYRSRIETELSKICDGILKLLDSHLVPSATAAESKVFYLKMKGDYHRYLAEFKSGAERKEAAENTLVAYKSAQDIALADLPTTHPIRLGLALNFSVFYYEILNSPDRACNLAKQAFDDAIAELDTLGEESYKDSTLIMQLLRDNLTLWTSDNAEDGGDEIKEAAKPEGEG
Briefly: Y2H; input trait library. Summed up:
as §1

Assay [1] concerns the target T6, OsERP (PN20696) aa 23-120 (Oryza sativa, UniProt Q0JBH9 23-120).
T6 construct: bait, Gal4 DBD fusion; also called Elicitor responsive protein
T6 sequence: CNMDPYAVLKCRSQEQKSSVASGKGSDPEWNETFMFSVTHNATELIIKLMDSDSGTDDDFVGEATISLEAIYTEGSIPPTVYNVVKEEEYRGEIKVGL
The assay can be described thus: Y2H; output trait library. Summed up:
(§2)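 The values record whether an interaction was detected. In an automated, high-throughput yeast two-hybrid screen from Myriad Genetics Inc., rice protein fragments defined by amino-acid range were used as bait against rice prey clone libraries. Full-length genes were identified by BLAST comparison of the sequences encoding the interacting prey fragments against databases.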

For the next assay, the target named is T7, OsCATA aa 332-433 (Oryza sativa, UniProt P0C549 332-433).
T7 construct: prey, AD fusion; also called PN20899; O. sativa Catalase A Isozyme
T7 sequence: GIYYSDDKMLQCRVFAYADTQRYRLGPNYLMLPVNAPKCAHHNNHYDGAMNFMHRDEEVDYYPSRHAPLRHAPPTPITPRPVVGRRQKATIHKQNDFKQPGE
Briefly: Y2H; input trait library. The method in brief:
as §1

For a further assay, the target named is T8, OsCS aa 411-489 (Oryza sativa, UniProt A2Y0X2 411-489).
T8 construct: prey, AD fusion; also called PN19707; O. sativa Cellulose Synthase Catalytic Subunit, RSW1-Like
T8 sequence: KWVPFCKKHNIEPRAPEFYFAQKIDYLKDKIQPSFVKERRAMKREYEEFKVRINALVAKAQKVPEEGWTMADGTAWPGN
The assay can be described thus: Y2H; input trait library. The method in brief:
as §1

For a further assay, the target named is T9, OsPN22154 aa 390-562 (Oryza sativa, UniProt Q6Z6L4 390-562).
T9 construct: prey, AD fusion; also called Novel Protein PN22154, Similar to A. thaliana Glutamyl Aminopeptidase
T9 sequence: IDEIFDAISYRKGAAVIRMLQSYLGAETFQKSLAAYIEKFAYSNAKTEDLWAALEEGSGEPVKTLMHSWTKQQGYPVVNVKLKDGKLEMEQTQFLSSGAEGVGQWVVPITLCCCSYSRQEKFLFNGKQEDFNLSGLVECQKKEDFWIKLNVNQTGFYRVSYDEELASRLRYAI
Briefly: Y2H; input trait library. The method in brief: as §1

The next assay has as its target T10, PN24061 aa 34-236 (Oryza sativa, UniProt A2XLV9 34-236).
T10 construct: prey, AD fusion; also called Auxin induced protein-like
T10 sequence: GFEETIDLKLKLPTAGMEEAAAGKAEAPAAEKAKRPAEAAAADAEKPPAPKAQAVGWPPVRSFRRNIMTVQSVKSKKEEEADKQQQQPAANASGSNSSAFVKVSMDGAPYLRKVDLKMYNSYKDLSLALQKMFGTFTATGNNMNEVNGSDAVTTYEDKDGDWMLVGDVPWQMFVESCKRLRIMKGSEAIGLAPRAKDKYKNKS
The assay can be described thus: Y2H; output trait library. The method in brief: as §2

In another assay the target is T11, OsCS aa 316-583 (Oryza sativa, UniProt A2Y0X2 316-583).
T11 construct: bait, Gal4 DBD fusion; also called PN19707
T11 sequence: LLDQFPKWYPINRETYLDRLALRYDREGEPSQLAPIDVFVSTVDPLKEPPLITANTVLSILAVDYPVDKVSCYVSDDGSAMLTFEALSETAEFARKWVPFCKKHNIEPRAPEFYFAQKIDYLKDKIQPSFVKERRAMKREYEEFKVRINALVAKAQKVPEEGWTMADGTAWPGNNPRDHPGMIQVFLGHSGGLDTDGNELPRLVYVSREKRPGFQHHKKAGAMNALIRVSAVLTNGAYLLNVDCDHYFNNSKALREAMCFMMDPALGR
Briefly: Y2H; input trait library. Summed up:
as §1

T1 sequence (Q6EP31 whole entry, the tested form may be a part): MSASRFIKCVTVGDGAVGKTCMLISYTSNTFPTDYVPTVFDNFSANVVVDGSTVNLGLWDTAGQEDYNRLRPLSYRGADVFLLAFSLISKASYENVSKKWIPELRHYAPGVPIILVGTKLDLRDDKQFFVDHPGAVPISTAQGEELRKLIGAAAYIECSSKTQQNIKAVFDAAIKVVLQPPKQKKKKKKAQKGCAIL

B1: OsPN22824 aa 301-500 (other)
chain: DGEEVSCGIKAALAEKELEEEETKKMIEEESIDATAIDSGEKENPEVAELKAKLMAKDMEVAILTADNAELKKQVGEAAEAAKKAEEEAAAKASLVEQDLKERAAREARMGEQLRASEAARETLEAEMRRLRVQTEQWRKAAEAAPPVIGGDAHFVGHNGNGWGSPATMPDDCDDEGFGGKRKGAGIRMLGDLWKKKGSK
notes: prey, AD fusion
For the molecule B1, the binding result with OsRACD aa 1-198 was “binds”.

B2: OsPN30848 aa 365-476 (other)
chain: DCSLAKPPAADKKDDRVPLPSSNGAPLLPSYPPLGYGIMSVPGAYGAAPASTAQPMLYAPRAPPGAAMVPMMLPDGRLVYVVQQPGGQLPLASPPPQQAGHRSGSGGRHGGS
notes: prey, AD fusion
As for B2, the binding result in the assay with OsS49462 aa 1-100 was “binds”.

B3: OsERP (PN20696) aa 50-145 (other)
chain: PEWNETFMFSVTHNATELIIKLMDSDSGTDDDFVGEATISLEAIYTEGSIPPTVYNVVKEEEYRGEIKVGLTFTPEDDRDRGLSEEDIGGWKQSS
notes: bait, Gal4 DBD fusion; also called Elicitor responsive protein
B3: the binding result with PN20674 aa 64-263 and with PN20674 aa 71-298 was “binds” each time.

B4: OsCAA90866 aa 100-250 (other)
chain: GEMTERVAQEDRIPVLKASQDHLKEFISICEALELISEDELEISRQKNLIPWQIEEHRRLHGSSAKRLQKQSSRIKERKERRRRHESSCLSAPIELGGDLLRMMEKEREGMVSYYLIGSIEGFDLLDMLKKEEEIVPAVKEGKRRMVMHLL
notes: bait, Gal4 DBD fusion; also called PN20311; O. sativa Chilling-Inducible Protein CAA90866
Turning to B4, the binding result with Os008938-3209 aa 53-259 is reported as “binds”.

B5: PN31085 aa 378-553 (other)
chain: NGTISDSLGNLSELSDINLIGNNLTGHVPDSLTSLRLLQKLDLSGNDLTGPLPTFSPSVKVNVTGNLNFNGTAPGSAPSKDTPGSSSSRAPTLPGQGVLPENKKKRSAVVLATTIPVAVSVVALASVCAVLIFRKKRGSVPPNAASVVVHPRENSDPDNLVKIVMVNNDGNSSSTQ
notes: prey, AD fusion; also called Receptor-like protein kinase-like
As to B5, the binding result in [1] is on record as “binds”.

B6: OsCHIB1 aa 10-200 (enzyme)
chain: YIGAQFTGVRFSDVPVNPGLSFHFILAFAIDYFMATQSSKPAPANGVFAPYWDTANLSPAAVAAAKAAHPNLSVILALGGDTVQNTGVNATFAPTSSVDAWVRNAADSVSGLIDAYGLDGVDVDYEHFAAGVDTFVECIGRLLTELKARHPNIATSIAPFEHPVVQRYYQPLWRRYAGVIDYVNFQFYGYG
notes: bait, Gal4 DBD fusion; also called PN19651; O. sativa Chitinase, Class III
For the molecule B6, the binding result with OsCATA aa 332-433, in the assay with OsCS aa 411-489 and in the assay with OsPN22154 aa 390-562 was “binds” in each case.

B7: OsSGT1 aa 200-368 (other)
chain: QMLSVSIEVPGEEPYHFQPRLFSKIIPEKSRYQVLSTKVEIRLAKAEQITWTSLDYDKKPKAVPQKIIPPAESAQRPSYPSSKSKKDWDKLEAEVKKEEKEEKLEGDAALNKFFRDIYSDADEDMRRAMMKSFVESNGTVLSTNWKDVGSKKVEGSPPDGMELKKWEY
notes: bait, Gal4 DBD fusion; also called PN20285
With B7, the binding result in the assay with PN24061 aa 34-236 is recorded as “binds”.

B8: OsCS aa 316-582 (other)
chain: LLDQFPKWYPINRETYLDRLALRYDREGEPSQLAPIDVFVSTVDPLKEPPLITANTVLSILAVDYPVDKVSCYVSDDGSAMLTFEALSETAEFARKWVPFCKKHNIEPRAPEFYFAQKIDYLKDKIQPSFVKERRAMKREYEEFKVRINALVAKAQKVPEEGWTMADGTAWPGNNPRDHPGMIQVFLGHSGGLDTDGNELPRLVYVSREKRPGFQHHKKAGAMNALIRVSAVLTNGAYLLNVDCDHYFNNSKALREAMCFMMDPALG
notes: prey, AD fusion; also called PN19707
Take B8: the binding result in the assay with OsCS aa 316-583 is “binds”.
